# B1: OsD-LDH2 (Oryza sativa Japonica Group) (protein)
# chain: MARRAAAGLLRRHLGPLAAGETLQARGMYPKQYGAANHAFSRFYSIQGQQRSLYGFRTNVETDDTQQSARMNFEVQKRSFSSAAAHVQRNPAYSVLNSDDVSYFKSILGDSGVVQDEDRVSVANMDWMGKYKGSSQLLLLPKSTAEVSKILSYCNSRRLAVVPQGGNTGLVGGSVPVYDEVIISLGGMDKIITFDNVNGILTCEAGCVLENLSSYVENKGFIMPLDLGAKGSCHIGGNISTNAGGLRFIRYGSLHGSVLGLEVVLADGTVLDMLTTLRKDNTGYDLKHLFIGSEGSLGIVTKIAILTPAKLPSTNVAFLSCNDYISCQKLLLAARRSLGEILSAFEFMDRHCINLAMKYLEGVHNPLPVSPFNFYVLIETTGSDESYDKAKLEAFLLRSMEDGLVADGVIAQDISQASNFWRIREGISEASVKVGAVYKYDLSIPVEKLYDIVEEMRSRVGDMGQVLGYGHLGDGNLHLNILSTKYSDKMLAQIEPFVYEWTSKQRGSISAEHGLGLMKAEKIHYSKSSEAVQLMASIKKLLDPNSILNPYKVLPQSVL
# Substrate: C[C@@H](O)C(=O)O
# Test: purified protein
# Details: DCIP as co-substrate, D-lactate 5-300 µM, pH of the kinetic assay not given (optimum pH 8.75)
protein,measurement,value
B1,Km,8.045 ± 1.7 µM
same,kcat,3.27 s⁻¹
same,kcat/Km,407000 M⁻¹ s⁻¹

# Source: publication PMC7393112
